From patent US20210371529A1 (Innovent, published 2021)

T1: rhLAG3 protein (huFc) (human, UniProt P18627 23-450, limits assumed)
T1 construct: Bought Fc fusion; also called antigen rhLAG3 protein (huFc) (Sino Biological); human LAG-3; not shown: human Fc
T1 sequence (looked up): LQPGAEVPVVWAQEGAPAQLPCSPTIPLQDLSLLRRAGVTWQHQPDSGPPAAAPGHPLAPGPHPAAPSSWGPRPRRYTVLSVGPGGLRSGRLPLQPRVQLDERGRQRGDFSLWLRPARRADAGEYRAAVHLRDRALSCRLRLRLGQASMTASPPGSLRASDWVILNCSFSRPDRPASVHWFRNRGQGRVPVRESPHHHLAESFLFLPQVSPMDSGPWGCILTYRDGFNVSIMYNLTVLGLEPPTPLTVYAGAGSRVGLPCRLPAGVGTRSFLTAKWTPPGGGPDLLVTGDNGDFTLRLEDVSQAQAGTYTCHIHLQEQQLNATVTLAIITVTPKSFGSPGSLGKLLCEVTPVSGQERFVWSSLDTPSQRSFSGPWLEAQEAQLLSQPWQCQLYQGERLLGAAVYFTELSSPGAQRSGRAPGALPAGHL

T2: mouse LAG-3 overexpressed on CHO cells (mouse, UniProt Q61790 24-521)
T2 construct: whole, on cells; also called CHO-mLAG-3 cells; mouse LAG-3 on the cell surface
T2 sequence (looked up): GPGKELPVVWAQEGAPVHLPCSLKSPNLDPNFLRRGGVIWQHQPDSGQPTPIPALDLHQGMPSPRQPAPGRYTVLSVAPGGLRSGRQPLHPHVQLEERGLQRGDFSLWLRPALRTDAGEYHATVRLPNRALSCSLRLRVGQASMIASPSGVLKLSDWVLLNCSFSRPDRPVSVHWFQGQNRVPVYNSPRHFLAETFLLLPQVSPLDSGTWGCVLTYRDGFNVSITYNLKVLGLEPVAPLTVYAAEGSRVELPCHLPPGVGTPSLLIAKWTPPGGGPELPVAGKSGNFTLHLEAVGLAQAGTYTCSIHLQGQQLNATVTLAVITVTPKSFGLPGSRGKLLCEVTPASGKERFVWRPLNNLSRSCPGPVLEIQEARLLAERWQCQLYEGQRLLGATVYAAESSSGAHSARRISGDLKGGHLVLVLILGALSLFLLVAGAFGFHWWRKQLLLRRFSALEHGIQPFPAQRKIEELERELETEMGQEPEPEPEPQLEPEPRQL


Experiments:
[1] = target: T1, rhLAG3 protein (huFc); assay: flow cytometry, blocking of rhLAG3 (huFc) 20 nM binding to HLA-DR on CHO-DR cells
Experimental: Antigen rhLAG3 protein (huFc) (Sino Biological) was diluted to 40 nM, 50 μL/well. […] 50 μL of the diluted antibodies was added to each well, and incubated in PBS on ice for 30 min. The final antigen concentration was 20 nM and the maximum antibody concentration was 40 nM. The CHO-DR cells were adjusted to 3×10⁵ cells/well, 100 μL/well. The cells were centrifuged at 300 g for 5 min. The supernatant was discarded. Then the cells were resuspended in an antigen-antibody mixture. The mixture was incubated on ice for 30 min. PBS was added, 100 μL/well. After centrifugation at 300 g for 5 min, the mixture was washed with PBS once. 100 μL of goat anti-human IgG-PE (Southern Biotech) diluted in 1:100 was added to each well. After a 20-min ice bath, PBS was added, 100 μL/well. The mixture was centrifuged at 300 g for 5 min, prior to one wash with PBS. The cells were resuspended with 100 μL of PBS. The cell fluorescence signal values were measured by flow cytometry (BD Biosciences).

[2] = target: T2, mouse LAG-3 overexpressed on CHO cells; assay: flow cytometry (MFI) on CHO cells overexpressing mouse LAG-3; value from the EC50 table on the sheet, which has no unit of its own (concentration axis in nM); the curve has no plateau
Experimental: (§1) The cells were incubated on ice for 30 min. The cells were then washed at least twice prior to addition of a secondary antibody (a PE-labeled goat anti-human IgG antibody, Southern Biotech, final concentration […]) diluted in 1:100, and incubated on ice (protected from light) for 30 minutes. The cells were washed at least twice and analyzed by flow cytometry. The flow cytometry assay was performed on an Accuri C6 system (BD Biosciences), and a concentration-dependent curve was fitted with GraphPad according to the mean fluorescence intensity (MFI).

[3] = target: T2, mouse LAG-3 overexpressed on CHO cells; assay: flow cytometry on CHO-mLAG-3 cells, MFI curve
Experimental: as §1

Row | IC50 [1] [nM] | EC50 [2] [nM] | EC50 [3] [nM] | Binder
1 | 5.85 | ~12100 | – | ADI-31851 (antibody, human IgG4 S228P, kappa, F234A L235A, V domains shown, IgG4 heavy chain constant region with kappa light chain; expressed in HEK293 cells) VH: QLQLQESGPGLVKPSETLSLTCTVSGGSISSPDYYWGWIRQPPGKGLEWIGSIVYSGYTYYNPSLKSRVTISVDTSKNQFSLKLSSVTAADTAVYYCARVRTWDQSFDIWGQGTMVTVSS VL: DIQMTQSPSSLSASVGDRVTITCQAGQDISNYLNWYQQKPGKAPKLLIYDASNLETGVPSRFSGSGSGTDFTFTISSLQPEDIATYYCQQVLELPPWTFGGGTKVEIKR
2 | 4.53 | – | 42.3 | ADI-31853 (antibody, human IgG4 S228P, kappa, F234A L235A, V domains shown, IgG4 heavy chain constant region with kappa light chain; expressed in HEK293 cells) VH: QLQLQESGPGLVKPSETLSLTCTVSGGSIYSESYYWGWIRQPPGKGLEWIGSIVYSGYTYYNPSLKSRVTISVDTSKNQFSLKLSSVTAADTAVYYCARVRTWDAAFDIWGQGTMVTVSS VL: DIQMTQSPSSLSASVGDRVTITCQASQDISNYLNWYQQKPGKAPKLLIYDASNLETGVPSRFSGSGSGTDFTFTISSLQPEDIATYYCQQVLELPPWTFGGGTKVEIKR
